In paper PMC10036536, “Optimizing human α-galactosidase for treatment of Fabry disease” (Scientific Reports, 2023):

Molecular target: the molecule itself
Assay: SEC; protein eluted from concanavalin A-Sepharose; Superdex 200 PG 26/60, 2.4 mM Na2HPO4, 17.6 mM NaH2PO4 (pH 6.0), 150 mM NaCl, 0.02% Tween-20

B1: recombinant human α-galactosidase A (GLA) (enzyme, UniProt P06280 32-429, looked up)
chain: LDNGLARTPTMGWLHWERFMCNLDCQEEPDSCISEKLFMEMAELMVSEGWKDAGYEYLCIDDCWMAPQRDSEGRLQADPQRFPHGIRQLANYVHSKGLKLGIYADVGNKTCAGFPGSFGYYDIDAQTFADWGVDLLKFDGCYCDSLENLADGYKHMSLALNRTGRSIVYSCEWPLYMWPFQKPNYTEIRQYCNHWRNFADIDDSWKSIKSILDWTSFNQERIVDVAGPGGWNDPDMLVIGNFGLSWNQQVTQMALWAIMAAPLFMSNDLRHISPQAKALLQDKDVIAINQDPLGKQGYQLRQGDNFEVWERPLSGLAWAVAMINRQEIGGPRSYTIAVASLGKGVACNPACFITQLLPVKRKLGFYEWTSRLRSHINPTGTVLLQLENTMQMSLKDLL
notes: α-galactosidase A, human, UniProt P06280; The methods say fractions of the homodimer were pooled; also called rhGLA
- stoichiometry N: 2
